The results in this text go back to article PMC3461054.

Assay [1] concerns the target His-KLP64DS (6xHis-tagged KLP64D stalk) (Drosophila) (UniProt Q9VRK9). Description: SEC; affinity purified heterodimer on HiLoad 16/60 Superdex 75 pg in 20 mM Tris-Cl pH 7.5, 5 mM MgCl2, 500 mM NaCl, 2.5 mM DTT, 1 ml/min; fractions on SDS-PAGE, band intensities compared.
The target in assay [2] is His-KLP68DS (6xHis-tagged KLP68D stalk) (Drosophila). The assay is described as above.

Broadly, the stoichiometry N is the number of molecules, sites or subunits per partner or assembly. In assay [1], “KLP68DS (KLP68D stalk, untagged) (domain or fragment)” registered a stoichiometry N of 1.

B1: KLP64DS (KLP64D stalk, untagged) (domain or fragment)
chain: PKKKREKTDAEKEELAKRKNEHQKEIEHAKTEQETLRNKLVSLEGKILVGGENLLEKAQTQELLLEQSIAELEQHEKSEEALKQTLQQKATERIDIEERYSTLQDASTGITKKIHRVMQMLMGVKSELADQQQEHQREKEGIYENIRSLSRELALCELVLNSYVP
B1 came in with a stoichiometry N in assay [2] of 1.
